The results in this text go back to patent US20170275366A1 (Pfizer, published 2017).

B1: 139-V5 CAR (other)
chain: DIQMTQSPSSLSASVGDRVTITCRASQGIRNNLAWYQQKPGKAPKRLIYAASNLQSGVPSRFTGSGSGTEFTLIVSSLQPEDFATYYCLQHHSYPLTSGGGTKVEIKGGGGSGGGGSGGGGSEVQVLESGGGLVQPGGSLRLSCAASGFTFSSYAMSWVRQAPGKGLEWVSAISGSGGSTNYADSVKGRFTISRDNSKNTLYLQMNSLRAEDTAVYYCAGSSGWSEYWGQGTLVTVSSEPKSPDKTHTCPPCPAPPVAGPSVFLFPPKPKDTLMIARTPEVTCVVVDVSHEDPEVKFNWYVDGVEVHNAKTKPREEQYNSTYRVVSVLTVLHQDWLNGKEYKCKVSNKALPAPIEKTISKAKGQPREPQVYTLPPSRDELTKNQVSLTCLVKGFYPSDIAVEWESNGQPENNYKTTPPVLDSDGSFFLYSKLTVDKSRWQQGNVFSCSVMHEALHNHYTQKSLSLSPGKKDPKIYIWAPLAGTCGVLLLSLVITLYCKRGRKKLLYIFKQPFMRPVQTTQEEDGCSCRFPEEEEGGCELRVKFSRSADAPAYQQGQNQLYNELNLGRREEYDVLDKRRGRDPEMGGKPRRKNPQEGLYNELQKDKMAEAYSEIGMKGERRRGKGHDGLYQGLSTATKDTYDALHMQALPPR
notes: Chimeric antigen receptor on the surface of primary T cells; also called CARs 139-V5; 25
B2: MR1-V3 CAR (other)
chain: QVQLQQSGGGLVKPGASLKLSCVTSGFTFRKFGMSWVRQTSDKRLEWVASISTGGYNTYYSDNVKGRFTISRENAKNTLYLQMSSLKSEDTALYYCTRGYSSTSYAMDYWGQGTTVTVGGGGSGGGGSGGGGSDIELTQSPASLSVATGEKVTIRCMTSTDIDDDMNWYQQKPGEPPKFLISEGNTLRPGVPSRFSSSGTGTDFVFTIENTLSEDVGDYYCLQSFNVPLTFGDGTKLEKALTTTPAPRPPTPAPTIASQPLSLRPEACRPAAGGAVHTRGLDFACDIYIWAPLAGTCGVLLLSLVITLYCKRGRKKLLYIFKQPFMRPVQTTQEEDGCSCRFPEEEEGGCELRVKFSRSADAPAYQQGQNQLYNELNLGRREEYDVLDKRRGRDPEMGGKPRRKNPQEGLYNELQKDKMAEAYSEIGMKGERRRGKGHDGLYQGLSTATKDTYDALHMQALPPR
notes: Chimeric antigen receptor on the surface of primary T cells; It has the MR1 scFv (VH, (G4S)3 linker, VL), CD8 alpha hinge, CD8 alpha TM, 4-1BB and CD3 zeta; also called 26
B3: MR1-V5 CAR (other)
chain: QVQLQQSGGGLVKPGASLKLSCVTSGFTFRKFGMSWVRQTSDKRLEWVASISTGGYNTYYSDNVKGRFTISRENAKNTLYLQMSSLKSEDTALYYCTRGYSSTSYAMDYWGQGTTVTVGGGGSGGGGSGGGGSDIELTQSPASLSVATGEKVTIRCMTSTDIDDDMNWYQQKPGEPPKFLISEGNTLRPGVPSRFSSSGTGTDFVFTIENTLSEDVGDYYCLQSFNVPLTFGDGTKLEKALEPKSPDKTHTCPPCPAPPVAGPSVFLFPPKPKDTLMIARTPEVTCVVVDVSHEDPEVKFNWYVDGVEVHNAKTKPREEQYNSTYRVVSVLTVLHQDWLNGKEYKCKVSNKALPAPIEKTISKAKGQPREPQVYTLPPSRDELTKNQVSLTCLVKGFYPSDIAVEWESNGQPENNYKTTPPVLDSDGSFFLYSKLTVDKSRWQQGNVFSCSVMHEALHNHYTQKSLSLSPGKKDPKIYIWAPLAGTCGVLLLSLVITLYCKRGRKKLLYIFKQPFMRPVQTTQEEDGCSCRFPEEEEGGCELRVKFSRSADAPAYQQGQNQLYNELNLGRREEYDVLDKRRGRDPEMGGKPRRKNPQEGLYNELQKDKMAEAYSEIGMKGERRRGKGHDGLYQGLSTATKDTYDALHMQALPPR
notes: Chimeric antigen receptor on the surface of primary T cells; It has the MR1 scFv, IgG1 hinge, CD8 alpha TM, 4-1BB and CD3 zeta; also called 27
B4: 139-V3 CAR (other)
chain: DIQMTQSPSSLSASVGDRVTITCRASQGIRNNLAWYQQKPGKAPKRLIYAASNLQSGVPSRFTGSGSGTEFTLIVSSLQPEDFATYYCLQHHSYPLTSGGGTKVEIKGGGGSGGGGSGGGGSEVQVLESGGGLVQPGGSLRLSCAASGFTFSSYAMSWVRQAPGKGLEWVSAISGSGGSTNYADSVKGRFTISRDNSKNTLYLQMNSLRAEDTAVYYCAGSSGWSEYWGQGTLVTVSSTTTPAPRPPTPAPTIASQPLSLRPEACRPAAGGAVHTRGLDFACDIYIWAPLAGTCGVLLLSLVITLYCKRGRKKLLYIFKQPFMRPVQTTQEEDGCSCRFPEEEEGGCELRVKFSRSADAPAYQQGQNQLYNELNLGRREEYDVLDKRRGRDPEMGGKPRRKNPQEGLYNELQKDKMAEAYSEIGMKGERRRGKGHDGLYQGLSTATKDTYDALHMQALPPR
notes: Chimeric antigen receptor on the surface of primary T cells (mRNA transfection); also called CARs 139-V3; 24

In this test the target is T1, recombinant protein consisting of the extracellular domain of the human EGFRVIII protein fused with a murine … (human; murine, UniProt P00533 25-645).
T1 construct: extracellular domain; It is described in the general methods as the reagent for detecting CAR on T cells by flow cytometry; also called EGFRvIII-mouse Fc detection reagent; not shown: murine IgG1 Fc fragment
The test is described as follows: flow cytometry of CAR on primary T cells; by the general methods detected through binding of EGFRvIII ECD-mouse IgG1 Fc and a PE anti-mouse Fc antibody. As for the experimental part: Transduction of T-cells with recombinant lentiviral vectors expression the CAR was carried out three days after T-cell purification/activation. Lentiviral vectors produced by Vectalys SA (Toulouse, France) by transfection of genomic and helper plasmids in HEK-293 cells may be used. Transductions were carried out at a multiplicity of infection of 5. CAR detection at the surface of T-cells is performed using a recombinant protein consisting on the extracellular domain of the human […] protein fused together with a murine IgG1 Fc fragment (produced by LakePharma). Binding of this protein to the CAR molecule is detected with a PE-conjugated secondary antibody (Jackson lmmunoresearch) targeting the mouse Fc portion of the protein, and analyzed by flow cytometry.
(Flow cytometry measures light scatter and fluorescence of single cells or particles in a stream.)
Regarding B1, the binding result is recorded as “binds”.

Consider B2, for which the binding result is given as “binds”.

B3: the binding result was “binds”.

With B4, the binding result is “binds”.
